System: K4 kissing-loop RNA reporter
Experiment: apparent KD of K4 kissing-loop reporter; higher = weaker reporter binding
Conditions: Eterna round: R107
Protocol: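 RNA-MaP round R107: designed RNA switches with theophylline, tryptophan, arginine or FMN aptamers are transcribed on-chip within common flanks. They are titrated with a labelled K4 kissing-loop RNA reporter in RNA-MaP buffer (100 mM Tris pH 7.5, 80 mM KCl, 4 mM MgCl2), without ligand or with the indicated ligand. Median apparent KD per design.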

[1] = input ligand: theophylline 20 uM
[2] = input ligand: tryptophan 2.4 mM
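Also: bound reporter read as fluorescence of individual clusters on recovered sequencing chips by microscopy, with normalized cluster intensities fitted with a binding model.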

Sequence	apparent KD of K4 kissing-loop reporter (input ligand: FMN 200 uM)	apparent KD of K4 kissing-loop reporter (input ligand: arginine 13.2 mM)	apparent KD of K4 kissing-loop reporter (input ligand: none)	apparent KD of K4 kissing-loop reporter [1]	apparent KD of K4 kissing-loop reporter [2]
UAAGCUCUGACGGCCGCCACUGCACGUGAAUCAGUGGUGGCUAACAUGAGUGAUGUUCAUGUAAGCAGGACCGGGUCAGAGCUAA [KL-XTryp-B14 #analogue]	112 nM	89.7 nM	93.4 nM	93.6 nM	109 nM
AGCUCAGAGUGACUCGAUAAGAGUCACAAACGAGGACCGGUACGGCCGCCACUCGAAAUAAUGGGAGUGAUGUUCUCACUGAGCA [#SwitchBubble 3 #StaticStem #K4Late]	1030 nM	719 nM	1190 nM	796 nM	384 nM
UGUCAUUGGUCGGCCGCCACUUUAUAUGGAGUGAUGUUUUGUAGAUUGUGUUGAAAGGUGUGGUGAAGGACCGGGACCGAUGACU [FiskerMod 25 - Jieux - Same State - Tryptophan B]	803 nM	617 nM	1010 nM	1010 nM	967 nM
UGUACCGAGACAGGAUAUGUCGUCGAAAGACGAAAUGGAGUGAUGUUCCUUAAACUGCGAAAGCAGACAGAAGGGUCUUGGUACU [FmnBS 29 A10+U76]	132 nM	172 nM	163 nM	165 nM	176 nM
GCUAUGGUAGGAAGGAGCGCGGACGAAAUAUAUCGAGUGAUGUUCGAAUAAUUAAAUAAAACGCAGGUAGGUCGCCUACUAUAGC [Arginine B K4 25]	116 nM	114 nM	110 nM	120 nM	97.6 nM
UCUGGAGCGUAUGAUACCAGCAGAGAGAGACAGGAAGUAUAGUGAUGUUAUAUGAGAGAAUGCCCUUGGCAGCGUGUGCAGUGGC [#26 K4 Theophylline B Same State]	55.9 nM	56.5 nM	66.8 nM	53.4 nM	48 nM
CCCUCACGAGUGAUGUUCGUAGGGUACAGUCAGGAUAUCAUGCGGUUGAGAAGGGACAGAAAGGGCGGCCACGGGUUGCUCAUUU [Issogeso]	200 nM	352 nM	343 nM	492 nM	530 nM
GUAUCGCUAGGAGGAUAUUUCAAUCCGCCUAUAAUAGGUGGUACGGAGUGAUGUUCCGAUUUACGGAAAGAAGGCCUAGUGAUAC [FMN B 16]	142 nM	265 nM	297 nM	283 nM	278 nM
GUCCACACUGCAGGAUAUGGAGGUAUAGCGAGGGAGUUUGGAAGCACACCUCUGGCAGUGAUGUUGCCAGAAGGGCGGUGCGGCG [Rauserin]	82.4 nM	89.5 nM	99.2 nM	64.3 nM	83.9 nM
AAAACUCAUGGCUUAUAUCCGUGUCUCGAAGGAGCGUACAGCGGUACAGGUAGGUCGCGAGACAUGAGUGAUGUUCAUGUGUAAA [KL-XArg-A6 #analogue]	109 nM	109 nM	129 nM	169 nM	104 nM
GUCCCAGUGAUGUUGGUAGGCGAGCGGGAUACCAGCGAAGACUCACGCCCUUGGCAGCCCACAUAUCCCACGUAGGGAUUAGCUC [Same State - Theophylline A (Freestyle 20)]	336 nM	359 nM	378 nM	357 nM	351 nM
AUAUUAAGCGGAAGGAGCGGCUGAACCAGUGAUGUUGGUUAAUCCAAGUGAUGUUGGAAAAGCCAGGUAGGUCGCCGCUAUAUAU [Same State Arg B GF 1]	725 nM	424 nM	695 nM	569 nM	640 nM
CACGGUUAUACGGCCGCCACUGAUUGCGUUGCAGUGAUGUUGCACGCGUCCGACUACACCUCAUUCAGGACCGGGUAGACAUGCA [theeternabot_exclusion_KL_Trp_B_11]	238 nM	163 nM	230 nM	208 nM	246 nM
CCGACUGCAGGAAGGAGCGGCGGUUGGAGUGAUGUUCCGGGUAGUGAUGUUACCAAACUCCGCCAGGUAGGUCGCCUGUUGCUCG [Same State Arginine B GF10]	151 nM	112 nM	165 nM	179 nM	144 nM
GCCGUAGAUUGAAGGAGCGGCAUUAACGAUGUUCUGGUAGUGAUGUUACCUCAGCAGACAUGCCAGGUAGGUCGCAAUCUACGGC	72.5 nM	74.6 nM	93.6 nM	76.6 nM	77 nM
ACACUAUCGUCAUAGACGGUAGUGAAAGCUCAGGAUAUGAGUGAUGUUAGAAGGGAGUAAAUCUUAGGUAUCGAAUAGAUACCAA [FmnA 7 #K4BetweenAptamer #OpenEnded]	1220 nM	364 nM	508 nM	287 nM	416 nM
AUCGUUGUCUGAGGAUAUCGUUUAACUGUAGUGAUGUUACAGAAAAUUCAUAUUAUAUUUUCUAUUCGAGAAGGCAGACUACGUA [JR_ExcFMNB_Sub016]	172 nM	133 nM	135 nM	123 nM	138 nM
AAAUAGAUCAGUCACCCAGUGAUGUUGGAAGGAGCGUGCGAAAGCACAGGUAGGUCGCCAAAAUAAAAUUGGCUGAUCAAAAUAA	304 nM	310 nM	361 nM	485 nM	195 nM
AAGUGUGUGGCGGCCGCCACUAGUCUCCAGUGAUGUUGGAGAUAUCACGUAAGUGAUAUCCGACAUAGGACCGGGCCAUAUAGAA [Same State - Tryptophan B (Freestyle 21)]	601 nM	318 nM	688 nM	556 nM	474 nM
AGAGUUAUGCGAGGAUAUGCAGUUAGUACUCAAAGAGUACUAACGCAGAGUGAUGUUCUGUGAAACGCAGAAGGUGCAUAACUCA [Omei KL FMN B SS B v4]	161 nM	509 nM	549 nM	480 nM	485 nM
GCGCGUCAUGGCGGCGGUGACUACGCCGAUACCAGCCGGGAAACCGGCCCUUGGCAGCGGCGCGCCGGAGUGAUGUUCCGACAGA [#2 Exclusion - Theophylline A Attempt #4 (HarryS)]	226 nM	275 nM	275 nM	370 nM	214 nM
